# In patent publication US20070117112:
# Read-outs that look alike come from different tables or passages of the source.
# Tests used:
# [1] = biological target: T7 RNA polymerase Y639L/H784A/K378R (LAR) (Bacteriophage T7) (UniProt P00573); details: 15 mL 2'-OMe NTP transcription, 8 mM MgCl2, 2.5 mM MnCl2
# [2] = biological target: T7 RNA polymerase Y639L/H784A/K378R (LAR) (Bacteriophage T7) (UniProt P00573); details: 2'-OMe NTPs
# [3] = biological target: T7 RNA polymerase P266L/Y639L/H784A/K378R (LLAR) (Bacteriophage T7) (UniProt P00573); details: 2'-OMe NTP transcription; at 2.6 ug/ml enzyme (130 at 11, 13 at 0.66, 8.3 at 0.16 ug/ml); template made with 5' poly-A extended primer
# [4] = biological target: T7 RNA polymerase Y639L/H784A/K378R (LAR) (Bacteriophage T7) (UniProt P00573); details: 2'-OMe NTP transcription; 2.1 ug/ml enzyme, 8 mM MgCl2, 2.5 mM MnCl2, 37 C; template made with 5' poly-A extended primer
sequence,measurement,setting,value
TAATACGACTCACTATAGGGAGAATTCCGACCAGAAGCTTNNNNNNNNNNNNNNNNNNNNNNNNNNNNNNNNNNNNNNNNCATATGTGCGTCTACATGGATCCTCA (double strand) [Template 1],activity (nmol transcript),[1],18.7
TAATACGACTCACTATAGGGGAGTACAATAACCAGACATNNNNNNNNNNNNNNNNNNNNNNNNNNNNNNGGATCGTTACGACTAGCATCGATG (double strand) [Template 8],activity (% relative yield),[2]; listed as Pool 4 (reference),100
TAATACGACTCACTATAGGGGAGTACAATAACGTTCTCGNNNNNNNNNNNNNNNNNNNNNNNNNNNNNNGGATCGTTACGACTAGCATCGATG (double strand) [ARC2118 template library],activity (% normalized yield),[3],65
same,activity (% normalized yield),[4],100
TAATACGACTCACTATAGGGAGACAAGAATAAACGCTCAANNNNNNNNNNNNNNNNNNNNNNNNNNNNNNNNNNNNNNNNTTCGACAGGAGGCTCACAACAGGC (double strand) [Template 7],activity (% relative yield),"[2]; listed as Pool 3, relative to Pool 4",130
TAATACGACTCACTATAGGGCCTTGTAGCGTGCATTCTTGNNNNNNNNNNNNNNNNNNNNNNNNNNNNNNCTAACATACTCCGAATCTGTCGAA (double strand) [Template 5],activity (% relative yield),"[2]; listed as Pool 1, relative to Pool 4",80
TAATACGACTCACTATAGGGAGAGACAAGCTTGGGTCNNNNNNNNNNNNNNNNNNNNNNNNNNNNNNNNNNNNNNNNAGAAGAGAAAGAGAAGTTAATTAAGGATCCTCAG (double strand) [Template 3],activity (nmol transcript),[1],20.2
TAATACGACTCACTATAGGAGCCTTCCTCCGGANNNNNNNNNNNNNNNNNNNNNNNNNNNNNNNNNNNNNNNNTCCGGTTTCCCGAGCTT (double strand) [Template 6],activity (% relative yield),"[2]; listed as Pool 2, relative to Pool 4",88
TAATACGACTCACTATAGGGAGAGCGGAAGCCGTGCTGGGGCCNNNNNNNNNNNNNNNNNNNNNNNNNNNNNNNNNNNNNNNNCATAACCCAGAGGTCGATGGATC (double strand) [Template 2],activity (nmol transcript),[1],17.4
TAATACGACTCACTATAGGGAGAATTCCGACCACAAGNNNNNNNNNNNNNNNNNNNNNNNNNNNNNNNNNNNNNNNNCATATGTGCGTCTACATGGATCCTCA (double strand) [Template 4],activity (nmol transcript),[1],27.8
